Results from paper doi:10.1101/2022.02.17.480855.

Biological target: FtsZ from Synechococcus 7942 (Synechococcus 7942)
Test: MST

Microcystin-LR (peptide) gave a Kd of 1120 nM.
